Reference: FireProtDB (doi:10.1038/nsb0196-54)

Conditions: Escherichia coli; pH 7; Thermal; CD; Sodium phosphate 10 mM; NaCl 350 mM; whole UniProt chain shown

B1: Regulatory protein rop wild type, P03051 (protein)
chain: MTKQEKTALNMARFIRSQTLTLLEKLNELDADEQADICESLHDHADELYRSCLARFGDDGENL
Protein B1 has a Tm of 68.7 °C.
